Measured values reported in US20160303225A1 (HENRY M JACKSON FOUNDATION FOR THE ADVANCEMENT OF MILITARY …, published 2016).

Target: T1, modified HCMV gB (homotrimeric complex of modified human cytomegalovirus glycoprotein B) (human cytomegalovirus (HCMV), UniProt F5HB53 25-750)
T1 construct: It runs as a 360 kDa homotrimer under native or partially reducing conditions and as a 120 kDa monomer under fully reducing or denaturing conditions; also called trimeric HCMV gB; HCMV trimeric gB
Assay: purified proteins mixed 1:1 (molecular ratio) and incubated at room temperature for 2 hours; Western blot under non-reducing conditions

B1: HCMV gH/gL fusion protein (other)
chain: DATVSVAPTVAEKVPAECPELTRRCLLGEVFQGDKYESWLRPLVNVTRRDGPLSQLIRYRPVTPEAANSVLLDDAFLDTLALLYNNPDQLRALLTLLSSDTAPRWMTVMRGYSECGDGSPAVYTCVDDLCRGYDLTRLSYGRSIFTEHVLGFELVPPSLFNVVVAIRNEATRTNRAVRLPVSTAAAPEGITLFYGLYNAVKEFCLRHQLDPPLLRHLDKYYAGLPPELKQTRVNLPAHSRYGPQAVDARGGGGSGGGGSGGGGSYGAEAISEPLDKAFHLLLNTYGRPIRFLRENTTQCTYNSSLRNSTVVRENAISFNFFQSYNQYYVFHMPRCLFAGPLAEQFLNQVDLTETLERYQQRLNTYALVSKDLASYRSFSQQLKAQDSLGEQPTTVPPPIDLSIPHVWMPPQTTPHGWTESHTTSGLHRPHFNQTCILFDGHDLLFSTVTPCLHQGFYLIDELRYVKITLTEDFFVVTVSIDDDTPMLLIFGHLPRVLFKAPYQRDNFILRQTEKHELLVLVKKDQLNRHSYLKDPDFLDAALDFNYLDLSALLRNSFHRYAVDVLKSGRCQMLDRRTVEMAFAYALALFAAARQEEAGAQVSVPRALDRQAALLQIQEFMITCLSQTPPRTTLLLYPTAVDLAKRALWTPNQITDITSLVRLVYILSKQNQQHLIPQWALRQIADFALKLHKTHLASFLSAFARQELYLMGSLVHSMLVHTTERREIFIVETGLCSLAELSHFTQLLAHPHHEYLSDLYTPCSSSGRRDHSLERLTRLFPDATVPTTVPAALSILSTMQPSTLETFPDLFCLPLGESFSALTVSEHVSYVVTNQYLIKGISYPVSTTVVGQSLIITQTDSQTKCELTRNMHTTHSITAALNISLENCAFCQSALLEYDDTQGVINIMYMHDSDDVLFALDPYNEVVVSSPRTHYLMLLKNGTVLEVTDVVVDATDSRLHHHHHH
notes: It was expressed in CHO DG44 cells; also called monomeric gH/gL; gH/gL heterodimer
binding result: binds
